The target in this assay is Spa2(281-535) (S. cerevisiae (budding yeast)) (UniProt P23201). Description: AUC; sedimentation velocity; 20 mM HEPES pH 7.4, 50 mM NaCl, 20 °C; Spa2(281-535) 18 μM, Spa2(1-535) 13 μM, Spa2(1-281) 17 μM.

One may read the stoichiometry N as the number of molecules, sites or subunits per partner or assembly.

The substance “Spa2(281-535) (from UniProt P23201 281-535) (domain or fragment)” yielded a stoichiometry N of 2.

These data come from paper PMC11130202.
